From patent US20180066068A9, “ANTI-PSYK ANTIBODY MOLECULES AND USE OF SAME FOR SYK-TARGETED THERAPY” (Millennium Pharmaceuticals, Inc., priority 2014, published 2018)

Columns and labels:
Type in all cases: binding
[1] = biological target: T1, pSYK Y525/6 in DLBCL tissue biopsies (Homo sapiens, UniProt P43405); assay: IHC on recently biopsied DLBCL tissues
T1 construct: from tissue; host or cells: FFPE human DLBCL biopsies; one normal lymph node

[2] = biological target: T2, pSYK in pervanadate-treated WSU-DLCL cells, PHTX-95L xenograft, DLBCL TMA core, normal spleen (Homo sapiens, UniProt P43405); assay: Validation of MIL81-1-8 IHC specificity
T2 construct: from tissue; host or cells: pellet of pervanadate-treated WSU-DLCL cells; PHTX-95L xenograft; DLBCL tissue microarray core; normal spleen
Method: Validation of the specificity MIL81-1-8 on lymphoma cells used a pellet of pervanadate-treated WSU-DLCL cells, PHTX-95L xenograft or a TMA core of a DLBCL tumor. When peptide immunogen was added to the antibody prior to incubation with the tissue, the pSYK IHC staining was blocked (FIG. 9). Another validation of the specificity of MIL81-1-8 staining used phosphatase treatment of the slides prior to antibody incubation. […] Due to this nuclear staining of phosphatase-treated samples, staining of only nuclei in samples was generally judged to be off-target and thus pSYK-negative.

[3] = biological target: T3, pSYK in PHTX 95L xenografts (Homo sapiens, UniProt P43405); assay: Quantitative pSYK IHC on PHTX 95L xenografts (Positive Pixel Count)
T3 construct: from tissue; host or cells: FFPE sections of PHTX-95L primary human lymphoma xenografts grown in NOD SCID mice
Method: Final selection of antibody was performed by qualitative and quantitative assessment of IHC results of staining pSYK in PHTX 95L xenografts from untreated or SYK inhibitor-treated mice described above using the Ventana Discovery XT autostainer and the same staining protocols as previous assays (see FIG. 2).
Quantitative analysis was performed with Aperio Spectrum analysis following Postitive Pixel Count v9 Algorithm at 20× magnification. The Positive pixel analysis was used rather than a signal-to-noise ratio because of program difficulties defining true cytoplasmic staining from background for positive amounts below 5%. The table below has the results of the quantitive analysis.

[4] = biological target: T4, pSYK in PHTX95L xenograft (Homo sapiens, UniProt P43405); assay: IHC on Leica BOND RX, PHTX95L xenograft background; conditions: MIL81-1-8 at 1:3200, 2175 at 1:25
T4 construct: from tissue; host or cells: FFPE sections of PHTX-95L primary human lymphoma xenografts grown in NOD SCID mice
Method: Similar results were obtained with the MIL81-1-8 subclone using an automated protocol on a Leica automated stainer. pSYK protein levels in Formalin-Fixed, Paraffin-Embedded tissues were incubated with MIL81-1-8 antibody ([…]) for 30 minutes on the Leica Microsystems (Wetzlar, Germany) BOND RX automated stainer. Antibodies were incubated with a rabbit anti-goat HRP secondary antibody (Leica Laboratories) and developed with the 3,3′-diaminobexidine (DAB) substrate map system. Slides were counterstained with hematoxylin and imaged using the Aperio whole slide scanning system (XT). MIL81-1-8 antibody was compared to commercial pSYK antibody Epitomics pSYK Catalog No. 2175-1 (Y525/526) for staining specificity. […] A detectable trend toward reduction of pSYK staining also was seen by the anti-pSYK MIL81-1-8 antibody in medium- and low-expressing xenograft samples from mice treated with a SYK inhibitor (FIGS. 5 to 7).

[5] = biological target: T5, pSYK in HBL1 and Ly10 xenografts (Homo sapiens, UniProt P43405); assay: IHC on medium- and low-expressing xenografts
T5 construct: from tissue; host or cells: FFPE HBL1 and OCI-LY10 xenografts in SCID mice
Method: An IHC assay using the MIL81-1-8 antibody was developed to evaluate pSYK expression in HBL1 xenograft tissue and several primary human tissue xenografts (PHTX-95L, OCI LY10) derived from diffuse large B-cell lymphoma (DLBCL) patient samples in female SCID mice. pSYK protein levels in Formalin-Fixed, Paraffin-Embedded (FFPE) tissues were assessed on […] thick sections and incubated with MIL81-1-8 antibody ([…]) for 1 hour on the Ventana Medical Systems (Tucson, Ariz.) Discovery XT automated stainer. Antibodies were incubated with OmniMap goat anti-rabbit HRP secondary antibody (Ventana Medical Systems) for 16 minutes and developed with the 3,3′-diaminobexidine (DAB) substrate map system. Slides were counterstained with hematoxylin and imaged using the Aperio whole slide scanning system (XT).
Similar results were obtained with the MIL81-1-8 subclone using an automated protocol on a Leica automated stainer. pSYK protein levels in Formalin-Fixed, Paraffin-Embedded tissues were incubated with MIL81-1-8 antibody ([…]) for 30 minutes on the Leica Microsystems (Wetzlar, Germany) BOND RX automated stainer. Antibodies were incubated with a rabbit anti-goat HRP secondary antibody (Leica Laboratories) and developed with the 3,3′-diaminobexidine (DAB) substrate map system. Slides were counterstained with hematoxylin and imaged using the Aperio whole slide scanning system (XT). […]

B1: Subclone 1-8: rabbit monoclonal anti-pSYK Y525/526 antibody from hybridoma subclone of multiclone 81-1 (antibody)
heavy: QSVEESGGRLVTPGTPLTLTCTVSGIDLNSYIMSWVRQAPGKGLEWIGIISRRGNTYYASWPKGRFTISKTSTTVDLKITSPTTEDTATYFCARAYLYTSGTMSVWGPGTLVTVSSGQPKAPSVFPLAPCCGDTPSSTVTLGCLVKGYLPEPVTVTWNSGTLTNGVRTFPSVRQSSGLYSLSSVVSVTSSSQPVTCNVAHPATNTKVDKTVAPSTCSKPTCPPPELLGGPSVFIFPPKPKDTLMISRTPEVTCVVVDVSQDDPEVQFTWYINNEQVRTARPPLREQQFNSTIRVVSTLPIAHQDWLRGKEFKCKVHNKALPAPIEKTISKARGQPLEPKVYTMGPPREELSSRSVSLTCMINGFYPSDISVEWEKNGKAEDNYKTTPAVLDSDGSYFLYSKLSVPTSEWQRGDVFTCSVMHEALHNHYTQKSISRSPGK
light: ADIVMTQTPSPVEAAVGGTVTIKCQASESISSYLSWYQQKPGQPPKLLIYRASTLVSGVPSRFKGSGSGTDFTLTISDLECADAATYYCQHTYFGSDYVGGFGGGTEVVVKGDPVAPTVLIFPPAADQVATGTVTIVCVANKYFPDVTVTWEVDGTTQTTGIENSKTPQNSADCTYNLSSTLTLTSTQYNSHKEYTCKVTQGTTSVVQSFNRGDC
Staining in recently biopsied DLBCL tissues versus Epitomics 2175-1 [1]: much stronger and cleaner | pSYK IHC staining after phosphatase treatment of slides ([2]; except nuclear staining of normal spleen): eliminated epitopes | pSYK IHC staining after adding peptide immunogen to the antibody ([2]; peptide blocking): blocked | ratio of Percent Positive Pixel per total Pixel, PHTX 95L Untreated ([3]; 20× magnification, Positive Pixel Count v9): 25.19% | ratio of Percent Positive Pixel per total Pixel, PHTX95L SYK Inhibitor ([3]; mice treated with SYK inhibitor (Compound A), 20× magnification): 11.30% | IHC performance compared with Epitomics 2175-1 ([3]; stains of PHTX-95L xenografts, intensity and signal to noise ratio, listed as MIL81-1-8): performing best and best | IHC background [4]: minimal background | Detection of pSYK / distinction of untreated and Syk-inhibitor treated tumors [5]: able to specifically detect
